Laboratory results as given in patent publication US20110165161A1, “ANTI-EPCAM ANTIBODIES THAT INDUCE APOPTOSIS OF CANCER CELLS AND METHODS USING SAME” (priority 2009, published 2011).

What was measured:
[1] = molecular target: T1, human EpCAM (epithelial cell adhesion/activating molecule) (human, UniProt P16422 24-314); assay: cell-based or functional assay
T1 sequence: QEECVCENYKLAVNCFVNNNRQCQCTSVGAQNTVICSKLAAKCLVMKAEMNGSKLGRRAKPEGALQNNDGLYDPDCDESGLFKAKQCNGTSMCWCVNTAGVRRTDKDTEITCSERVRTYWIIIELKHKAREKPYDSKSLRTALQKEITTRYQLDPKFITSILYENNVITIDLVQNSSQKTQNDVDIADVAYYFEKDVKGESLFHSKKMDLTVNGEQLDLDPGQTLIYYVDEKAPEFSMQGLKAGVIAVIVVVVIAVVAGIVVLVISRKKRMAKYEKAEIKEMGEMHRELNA

[2] = molecular target: T1, human EpCAM (epithelial cell …); assay: cell-based or functional assay; remark: listed apart in the source
[3] = molecular target: T1, human EpCAM (epithelial cell …); assay: flow cytometry, CHO/EpCAM cells, 0.1 µg/ml antibody
Description: A 300× dilution of human cell hyper-immune serum (HPS 300×) was used as binding positive control for both cell lines here. After 1 hr incubation at 4° C., cells were washed twice with 200 μl FACS buffer (1×PBS containing 1% FBS), stained with 100 μl of 1 μg/ml goat-anti-mouse IgG-PE (Southern Biotech, Cat. No. 1032-09) in FACS buffer and then incubated at 4° C. for 30 min. Cells were washed thrice with FACS buffer and analyzed by flow cytometry (BD LSR, BD Life Sciences).

[4] = molecular target: T2, EGFI-Cr1 wild type (first EGF-like repeat of human EpCAM fused to the constant region of human immunoglobulin … (human, UniProt P01857-1 99-330 = IgG part)); assay: direct ELISA, coated EGFI-Cr1 fusion, 0.1 µg/ml antibody
T2 construct: cDNA covered aa 1-63; Expressed in COS-7 cells; also called WT; EpCAM EGF-1 fusion protein WT
Description: (§1) A direct ELISA was used for testing the reactivity of anti-EpCAM antibodies toward variant EpCAM mutants. Briefly, purified EpCAM EGF-1 fusion proteins (WT, Q24A, E25K, E26D, A35T, N37R, F39A, V40E, N41A, N42E, N43A, R44G, Q45A, Q47A or T49A) and irrelevant control (CEA-Cr1) were pre-diluted to 0.5 μg/ml in coating buffer (8.4 g NaHCO₃, 3.4 g Na₂CO₃ in 1 L H₂O, pH 9.5) and aliquoted (100 μl/well) into 96-well plates. […] Plates were then washed 3 times with PBST followed by the addition of the enzyme substrate TMB (BD Biosciences, Cat. No. 555214). […] The optical densities at 450 nm wavelength were measured on an ELISA plate reader.

[5] = molecular target: T3, EGFI-Cr1 Q24A (human, UniProt P16422 25-63); assay: as above
T3 construct: not shown: The fused constant region of human immunoglobulin gamma 1 heavy chain (Cr1)
T3 chain: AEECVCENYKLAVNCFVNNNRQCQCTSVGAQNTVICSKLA
Description: as §1

[6] = molecular target: T4, EGFI-Cr1 E25K (human, UniProt P16422 24-63); assay: as above
T4 construct: not shown: The fused constant region of human immunoglobulin gamma 1 heavy chain (Cr1)
T4 chain: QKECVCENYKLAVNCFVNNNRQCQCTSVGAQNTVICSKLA
Description: as §1

[7] = molecular target: T5, EGFI-Cr1 E26D (human, UniProt P16422 24-63); assay: as above
T5 construct: not shown: The fused constant region of human immunoglobulin gamma 1 heavy chain (Cr1)
T5 chain: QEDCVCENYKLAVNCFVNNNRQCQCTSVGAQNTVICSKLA
Description: as §1

[8] = molecular target: T6, EGFI-Cr1 A35T (human, UniProt P16422 24-63); assay: as above
T6 construct: not shown: The fused constant region of human immunoglobulin gamma 1 heavy chain (Cr1)
T6 chain: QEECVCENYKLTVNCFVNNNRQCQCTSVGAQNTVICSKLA
Description: as §1

[9] = molecular target: T7, EGFI-Cr1 N37R (human); assay: as above
T7 construct: not shown: The fused constant region of human immunoglobulin gamma 1 heavy chain (Cr1)
T7 chain: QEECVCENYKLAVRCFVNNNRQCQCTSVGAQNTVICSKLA
Description: as §1

[10] = molecular target: T8, EGFI-Cr1 F39A (human, UniProt P16422 24-63); assay: as above
T8 construct: not shown: The fused constant region of human immunoglobulin gamma 1 heavy chain (Cr1)
T8 chain: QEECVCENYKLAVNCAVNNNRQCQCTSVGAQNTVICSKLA
Description: as §1

[11] = molecular target: T9, EGFI-Cr1 V40E (human); assay: as above
T9 construct: not shown: The fused constant region of human immunoglobulin gamma 1 heavy chain (Cr1)
T9 chain: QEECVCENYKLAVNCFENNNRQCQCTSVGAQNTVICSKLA
Description: as §1

[12] = molecular target: T10, EGFI-Cr1 N41A (human, UniProt P16422 24-63); assay: as above
T10 construct: not shown: The fused constant region of human immunoglobulin gamma 1 heavy chain (Cr1)
T10 chain: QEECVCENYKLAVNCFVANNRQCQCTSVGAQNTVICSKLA
Description: as §1

[13] = molecular target: T11, EGFI-Cr1 N42E (human, UniProt P16422 24-63); assay: as above
T11 construct: not shown: the constant region of human immunoglobulin gamma 1 heavy chain (Cr1) fused at the C-terminus
T11 chain: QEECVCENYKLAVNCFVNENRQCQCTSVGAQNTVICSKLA
Description: as §1

[14] = molecular target: T12, EGFI-Cr1 N43A (human, UniProt P16422 24-63); assay: as above
T12 construct: not shown: the constant region of human immunoglobulin gamma 1 heavy chain (Cr1) fused at the C-terminus
T12 chain: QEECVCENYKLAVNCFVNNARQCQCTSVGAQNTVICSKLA
Description: as §1

[15] = molecular target: T13, EGFI-Cr1 R44G (human, UniProt P16422 24-63); assay: as above
T13 construct: not shown: the constant region of human immunoglobulin gamma 1 heavy chain (Cr1) fused at the C-terminus
T13 chain: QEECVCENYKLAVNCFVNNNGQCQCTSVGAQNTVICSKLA
Description: as §1

[16] = molecular target: T14, EGFI-Cr1 Q45A (human, UniProt P16422 24-63); assay: as above
T14 construct: not shown: the constant region of human immunoglobulin gamma 1 heavy chain (Cr1) fused at the C-terminus
T14 chain: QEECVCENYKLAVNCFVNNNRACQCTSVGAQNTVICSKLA
Description: as §1

[17] = molecular target: T15, EGFI-Cr1 Q47A (human, UniProt P16422 24-63); assay: as above
T15 construct: not shown: the constant region of human immunoglobulin gamma 1 heavy chain (Cr1) fused at the C-terminus
T15 chain: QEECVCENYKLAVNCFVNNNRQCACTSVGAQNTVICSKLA
Description: as §1

[18] = molecular target: T16, EGFI-Cr1 T49A (human, UniProt P16422 24-63); assay: as above
T16 construct: not shown: the constant region of human immunoglobulin gamma 1 heavy chain (Cr1) fused at the C-terminus
T16 chain: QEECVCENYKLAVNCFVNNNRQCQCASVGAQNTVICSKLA
Description: as §1

% Annexin V/PI-positive cells, DLD-1, 1.0 µg/ml mAb [1]: 61%
% Annexin V/PI-positive cells, DLD-1, 3.0 µg/ml mAb [1]: 67%
% Annexin V/PI-positive cells, DLD-1, 10 µg/ml mAb [1]: 72%
% Annexin V/PI-positive cells, FaDu, 1.0 µg/ml mAb [1]: 42%
% Annexin V/PI-positive cells, FaDu, 3.0 µg/ml mAb [1]: 43%
% Annexin V/PI-positive cells, FaDu, 10 µg/ml mAb [1]: 44%
% Annexin V/PI-positive cells, LNCaP, 1.0 µg/ml mAb [1]: 61%
% Annexin V/PI-positive cells, LNCaP, 3.0 µg/ml mAb [1]: 67%
% Annexin V/PI-positive cells, LNCaP, 10 µg/ml mAb [1]: 58%
% Annexin V/PI-positive cells, NCI-H520, 1.0 µg/ml mAb [1]: 24%
% Annexin V/PI-positive cells, NCI-H520, 3.0 µg/ml mAb [1]: 29%
% Annexin V/PI-positive cells, NCI-H520, 10 µg/ml mAb [1]: 34%
% Annexin V/PI-positive cells, NCI-N87, 1.0 µg/ml mAb [1]: 67%
% Annexin V/PI-positive cells, NCI-N87, 3.0 µg/ml mAb [1]: 62%
% Annexin V/PI-positive cells, NCI-N87, 10 µg/ml mAb [1]: 66%
% Annexin V/PI-positive cells, NIH:OVCAR-3, 1.0 µg/ml mAb [1]: 59%
% Annexin V/PI-positive cells, NIH:OVCAR-3, 3.0 µg/ml mAb [1]: 62%
% Annexin V/PI-positive cells, NIH:OVCAR-3, 10 µg/ml mAb [1]: 63%
% Annexin V/PI-positive cells, T-47D, 1.0 µg/ml mAb [1]: 49%
% Annexin V/PI-positive cells, T-47D, 3.0 µg/ml mAb [1]: 54%
% Annexin V/PI-positive cells, T-47D, 10 µg/ml mAb [1]: 56%
% of Annexin V + PI staining (untreated background subtracted), NCI-H358, 10 µg/ml mAb, Exp1 [2]: 36%
% of Annexin V + PI staining (untreated background subtracted), NCI-H358, 10 µg/ml mAb, Exp2 [2]: 33%
% of Annexin V + PI staining (untreated background subtracted), NCI-H358, 10 µg/ml mAb, Exp3 [2]: 31%
% of Annexin V + PI staining (untreated background subtracted), NCI-H358, 10 µg/ml mAb, Exp4 [2]: 40%
% of Annexin V + PI staining (untreated background subtracted), NCI-H358, 10 µg/ml mAb, Exp5 [2]: 28%
MFI [3]: 6650 MFI
relative binding activity (% of WT) [4]: 100%
relative binding activity (% of WT) [5]: 0%
relative binding activity (% of WT) [6]: 1%
relative binding activity (% of WT) [7]: 94%
relative binding activity (% of WT) [8]: 95%
relative binding activity (% of WT) [9]: 94%
relative binding activity (% of WT) [10]: 96%
relative binding activity (% of WT) [11]: 93%
relative binding activity (% of WT) [12]: 81%
relative binding activity (% of WT) [13]: 23%
relative binding activity (% of WT) [14]: 96%
relative binding activity (% of WT) [15]: 91%
relative binding activity (% of WT) [16]: 89%
relative binding activity (% of WT) [17]: 93%
relative binding activity (% of WT) [18]: 94%
B1: murine monoclonal antibody 12H8 (antibody, mouse IgG2a, V domains shown)
VH: QIQLVQSGPELKKPGETVKISCKTSGYTFTDYSMHWVNQAPGKGLKWMGWINTETGEPTYTDDFKGRFAFSLETSASTAYLQINNLKNEDTATYFCARTAVYWGQGTTLTVSS
VL: DIQMTQSPSSLSASLGERVSLTCRASQEISGSLSWLQQKPDGTIKRLIYAASTLNSGVPKRFSGRRSGSDYSLTISSLESEDFVDYYCLQYSSYPWSFGGGTKLEIKR
notes: Mouse IgG2a, kappa, from hybridoma; also called m342-12H8.3; m12H8
